Measured values reported in patent US9611303B2, “Modified biotin-binding protein” (Japan Tobacco Inc., priority 2009, dated 2017).
Where a chain is given by its changes, count along the chain named. Names may count otherwise.

B1: TM2 T78A-D116A: TM2 with 78th threonine and 116th aspartic acid replaced with alanine; SEQ ID NO: 22 (protein)
chain: MSDVQSSLTGTWYNELNSKMELTANKDGTLTGKYLSKVGDVYVPYPLSGRYNLQPPAGQGVALGWAVSWENSKIHSAATWSGQFFSESSPVILTQWLLSSSTARGDVWESTLVGNASFTKTAPTEQQIAHAQLHCRAPRLK
modifications: Synthetic TM2 T78A-D116A
B2: TM2 L97T-V113R: TM2 with 97th leucine replaced with threonine and 113th valine with arginine (protein)
chain: B1 chain with A78T, L97T, V113R, A116D
B3: TM2 A66R-L97T-V113R: TM2 with A66R, L97T and V113R replacements (protein)
chain: B1 chain with A66R, A78T, L97T, V113R, A116D
B4: TM2P46T-T78A-D116A: TM2 with P46T, T78A and D116A replacements; SEQ ID NO: 18 (protein)
chain: B1 chain with P46T
modifications: Synthetic TM2 P46T-T78A-D116A
B5: TM2 D116A: TM2 in which the 116th aspartic acid was replaced with alanine; SEQ ID NO: 12 (protein)
chain: B1 chain with A78T
modifications: Synthetic TM2 D116A
B6: TM2 W80K: TM2 in which the 80th tryptophan was replaced with lysine; amino acid sequence SEQ ID NO: 4 (protein)
chain: B1 chain with A78T, W80K, A116D
modifications: Synthetic TM2 W80K
B7: TM2P46T-T78A: TM2 with 46th proline replaced with threonine and 78th threonine with alanine; SEQ ID NO: 14 (protein)
chain: B1 chain with P46T, A116D
modifications: Synthetic TM2 P46T-T78A
B8: TM2P46T-D116A: TM2 with 46th proline replaced with threonine and 116th aspartic acid with alanine; SEQ ID NO: 16 (protein)
chain: B1 chain with P46T, A78T
modifications: Synthetic TM2 P46T-D116A
B9: TM2 S36A: TM2 in which the 36th serine was replaced with alanine; SEQ ID NO: 6 (protein)
chain: B1 chain with S36A, A78T, A116D
modifications: Synthetic TM2 S36A

tested on: not listed separately; assay: Purification of LATM2 with 2-iminobiotin-agarose; assay type: binding; conditions: not given
Method: LATM2 was purified through a column charged with 2-iminobiotin-agarose (manufactured by Sigma-Aldrich Corp.) in accordance with the method by Hofmann, et al., (1980). IPTG was added to 25 mL of a culture solution of E. coli transformed with each LATM2 in a final concentration of 1 mM to induce expression. The E. coli cells were collected by centrifugation, suspended in 1.5 mL of 50 mM CAPS (pH 12) containing 50 mM NaCl, and then sonicated. To the supernatant of the disrupted cells, 500 μL of 2-iminobiotin-agarose was added, which was then packed in a column. The column was sufficiently washed with 50 mM CAPS (pH 12) containing 500 mM NaCl, and elution was then performed with 50 mM NH4OAC (pH 4).
(§1) The recovery rate in Table 2 was calculated by dividing the amount of LATM2 protein after purification by the amount of LATM2 protein before purification and was expressed by percent by multiplying the quotient by 100. The degree of purification was the ratio of the amount of LATM2 protein to the total amount of proteins in the purified fraction and was expressed by percent by multiplying the ratio by 100. The recovery rates and the degrees of purification in biotin-agarose were the results after binding at pH 7 and elution with an excess amount of biotin.

Row | Molecule | binding to 2-iminobiotin-agarose
1 | B1 | did not bind
2 | B2 | did not bind
3 | B3 | did not bind

same assay, conditions: FT = column flow-through fraction

Row | Molecule | Note (Iminobiotin-agarose)
4 | B1 | To FT
5 | B2 | To FT
6 | B3 | To FT

same assay, conditions: Iminobiotin-agarose; binding at pH 12, elution with 50 mM NH4OAC (pH 4)

Row | Molecule | Recovery rate (%)
7 | B1 | 0
8 | B4 | 95
9 | B5 | 95
10 | B2 | 0
11 | B6 | 95
12 | B7 | 95
13 | B8 | 95
14 | B9 | 95
15 | B3 | 0

tested on: not listed separately; assay: Subunit association by FPLC on Sephacryl S-100HR; assay type: physicochemical; conditions: Sephacryl S-100HR, 50 mM potassium phosphate, 500 mM NaCl
Method: In order to analyze the subunit association conditions of LATM2, the molecular weight of each LATM2s was measured by FPLC. Sephacryl S-100HR (manufactured by GE Healthcare) was used as a column, a Gel Filtration Calibration Kit LMW (manufactured by GE Healthcare) was used as molecular weight markers, and 50 mM potassium phosphate containing 500 mM NaCl was used as a buffer.
The positions of the peaks of eluted tetramer were defined to be 44 to 47 mL after injection of WT-TM2 as a control. The peak of an eluted monomer appeared at around 63 to 66 mL and the peak of an eluted dimer appeared at around 51 to 54 mL, from result of loading the molecular weight markers.

Row | Molecule | Structure (identified by FPLC)
16 | B1 | Tetramer
17 | B4 | Tetramer
18 | B5 | tetramer
19 | B2 | Tetramer
20 | B6 | Tetramer
21 | B7 | Tetramer
22 | B8 | Tetramer
23 | B9 | tetramer

same assay, conditions: Sephacryl S-100HR, 50 mM potassium phosphate, 500 mM NaCl; dimer peak

Row | Molecule | Structure (identified by FPLC)
24 | B3 | dimer,

same assay, conditions: Sephacryl S-100HR, 50 mM potassium phosphate, 500 mM NaCl; listed as D116A

Row | Molecule | Structure (identified by FPLC)
25 | B5 | Tetramer

same assay, conditions: Sephacryl S-100HR, 50 mM potassium phosphate, 500 mM NaCl; listed as S36A

Row | Molecule | Structure (identified by FPLC)
26 | B9 | Tetramer

same assay, conditions: Sephacryl S-100HR, 50 mM potassium phosphate, 500 mM NaCl; monomer peak

Row | Molecule | Structure (identified by FPLC)
27 | B3 | monomer

same assay, conditions: of the total, FPLC

Row | Molecule | share present as monomer [%]
28 | B3 | 64.8

same assay, conditions: tetramer 44 to 47 mL, dimer 51 to 54 mL, monomer 63 to 66 mL

Row | Molecule | Sephacryl (mL), elution peak position [mL]
29 | B1 | 46.37
30 | B4 | 48.24
31 | B5 | 46.22
32 | B2 | 45.42
33 | B6 | 44.4
34 | B7 | 46.05
35 | B8 | 46.23
36 | B9 | 46.17

same assay, conditions: tetramer 44 to 47 mL, dimer 51 to 54 mL, monomer 63 to 66 mL; dimer peak

Row | Molecule | Sephacryl (mL), elution peak position
37 | B3 | 54.38, mL

same assay, conditions: tetramer 44 to 47 mL, dimer 51 to 54 mL, monomer 63 to 66 mL; monomer peak

Row | Molecule | Sephacryl (mL), elution peak position [mL]
38 | B3 | 67.21

tested on: Proteinase K; assay: Protease resistance of LATM2 (SDS-PAGE); conditions: 5 μM Proteinase K, 30° C., 15 min, presence or absence of biotin
Method: Throughout the specification, “having protease resistance” refers to that a protein is not enzymatically decomposed or not substantially decomposed by protease treatment. The protease treatment is performed by, for example, proteinase K treatment at 30° C. for 15 min. The term “not enzymatically decomposed” refers to that bands of a tetramer, dimer, and/or monomer of the protein can be clearly detected by SDS-PAGE after enzyme treatment, as in wild-type TM2. That is, a protein not having protease resistance is decomposed into small molecules by protease treatment, and bands of the tetramer, dimer, and monomer are not detected by SDS-PAGE after the protease treatment. […] Accordingly, bands of the tetramer and/or the dimer or monomer generated by dissociation of the tetramer are detected by SDS-PAGE. […] of each of the LATM2s (TM2 S36A, TM2 […], TM2 […], TM2 […], TM2 […], TM2 S36A-[…], TM2 […], and […]) purified by biotin-agarose was subjected to a reaction in 50 mM Tris-HCl (pH 8.0) containing 5 μM Proteinase K and 5 mM CaCl2 at 30° C. for 15 min. […] Then, an SDS buffer was added to each reaction solution, followed by heat treatment at 95° C. for 10 min to terminate the reaction. The resulting sample was subjected to SDS-PAGE, followed by CBB staining.

Row | Molecule | decomposition by Proteinase K
39 | B1 | hardly decomposed
40 | B4 | hardly decomposed
41 | B5 | hardly decomposed
42 | B6 | hardly decomposed
43 | B7 | hardly decomposed
44 | B8 | hardly decomposed
45 | B9 | hardly decomposed

tested on: not listed separately; assay: Purification of LATM2 with biotin-agarose; assay type: binding; conditions: not given
Method: Purification with biotin-agarose (manufactured by Sigma-Aldrich Corp.) was performed by the following procedure. After induced expression of 25 mL of a culture solution of E. coli for each LATM2, the E. coli cells were suspended in 1.5 mL of a 100 mM potassium phosphate buffer (pH 7.0), and then sonicated. To the supernatant of the disrupted cells. 400 μL of biotin-agarose was added, which was followed by upside-down mixing for 1 hr. […]
In TM2 S36A-T78A-D116A, the E. coli cells were suspended in 1.5 mL of 50 mM CAPS (pH 12) containing 50 mM NaCl, and then sonicated. To the disrupted cells, 400 μL of biotin-agarose was added, which was followed by upside-down mixing for 1 hr. The column was sufficiently washed with 50 mM CAPS (pH 12) containing 500 mM NaCl, and elution was then performed with 1 mL of PBS (pH 7.4) containing 10 mM biotin.
In TM2 S36A-D116A, the E. coli cells were suspended in 1.5 mL of a 100 mM potassium phosphate buffer (pH 4.0), and then sonicated. To the pupernatant of the disrupted cells, 400 μL of biotin-agarose was added. Washing was performed with a 100 mM potassium phosphate buffer (pH 4) containing 500 mM NaCl, and elution was performed with 1 mL of PBS (pH 7) containing 10 mM biotin. Biotin binding to LATM2 that has been eluted with an excess amount of biotin was removed by dialysis with a 20 mM potassium phosphate buffer overnight.
as §1

Row | Molecule | binding to biotin-agarose | elution from biotin-agarose with an excess amount of biotin
46 | B9 | efficiently adsorbs to biotin-agarose | eluted by addition of an excess amount of biotin

same assay, conditions: Biotin-agarose

Row | Molecule | recovery rate by binding at pH 12, extraction with acetic acid
47 | B7 | recovery rate: 70%

same assay, conditions: Biotin-agarose, binding at pH 7, recovery with 10 mM biotin

Row | Molecule | Recover rate (%)
48 | B1 | 95
49 | B4 | 95
50 | B5 | 95
51 | B2 | 70
52 | B6 | 50
53 | B7 | 5
54 | B8 | 95
55 | B9 | 95
56 | B3 | 30

same assay, conditions: Biotin-agarose, elution with acetic acid

Row | Molecule | recover rate by elution with acetic acid
57 | B6 | recover rate: 95%

same assay, conditions: binding at pH 7, recovery with 10 mM biotin; FT = flow-through

Row | Molecule | Note (Biotin-agarose)
58 | B7 | note eluted
